Positions of bridges follow the written chain, without caps; N, C: chain ends. Non-standard residues stand in square brackets, D forms with d. No end group written: not given here. hCys = N[C@@H](CCS)C(=O)O; Orn = NCCC[C@H](N)C(=O)O; Dab = NCC[C@H](N)C(=O)O

Drawing on US20170319648A1, this text covers IC50 for two molecules.

The experiment deals with TEAD. Description: IC50 for TEAD binding; method not named in the example (TR-FRET test is the filing's screening method). A general note: Time-resolved FRET reads energy transfer from a long-lived donor to a nearby acceptor.
Chain of TEAD (P28347 209-426): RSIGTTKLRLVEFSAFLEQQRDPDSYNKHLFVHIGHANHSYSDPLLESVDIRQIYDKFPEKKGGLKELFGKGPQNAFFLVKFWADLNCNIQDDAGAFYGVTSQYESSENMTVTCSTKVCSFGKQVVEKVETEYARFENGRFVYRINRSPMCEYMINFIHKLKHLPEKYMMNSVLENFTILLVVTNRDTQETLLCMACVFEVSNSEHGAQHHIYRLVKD

Broadly, the IC50 is the concentration needed to halve the response being measured. Read a low IC50 as higher potency. Molecule VPF[hCys]LR[Orn]LPDSFCKPPE (disulfide 4-13) [polypeptide of SEQ ID NO.: 5 (VPF(Hcy)LR(Orn)…)] came in with an IC50 of 43 nM.

On to VPF[hCys]LR[Dab]LPDSFCKPPE (disulfide 4-13) [polypeptide of SEQ ID NO.: 6 (VPF(Hcy)LR(Dab)…)], for which the IC50 came to 28 nM.
